B1: GST-fusion protein of TRPV1 amino acids 189–250 (domain or fragment)
chain: FVNASYTDSYYKGQTALHIAIERRNMTLVTLLVENGADVQAAANGDFFKKTKGRPGFYFGEL
B2: GST-fusion protein of TRPV1 amino acids 149–222 (domain or fragment)
chain: KDPETGKTCLLKAMLNLHNGQNDTIALLLDVARKTDSLKQFVNASYTDSYYKGQTALHIAIERRNMTLVTLLVE

The target in the experiment is calmodulin immobilized on agarose beads (CaM-agarose) (UniProt P62157 1-149). The experiment can be described thus: pull-down.
In the case of B1, the binding result is “binds”.
As for FVNASYTDSYYKGQTALHIAIERRNMTLVTLLVE (domain or fragment) [GST-fusion protein of TRPV1 amino acids 189–222], the binding result is recorded as “binds”.
Next, B2: “binds”.
